Each block holds one binder with its values, some of them ahead of it. Numbered stars: 1 amine (or outer) side, 2 acyl side, 3 side chain; on linkers, the order of the positions; unused ones are H or OH. Square brackets hold non-standard residues; d marks the D form. Primed or numbered codes have the meaning given here. * marks the point of attachment. Pro(trans-4-NH2) = O=C([C@@H]1C[C@@H](N[*:3])CN1[*:1])[*:2]; Sni = (S)-nipecotic acid, O=C([C@H]1CCCN([*:1])C1)[*:2]; Phe(4-NO2) = N[C@@H](Cc1ccc([N+](=O)[O-])cc1)C(=O)O; Pro(trans-4-Ph) = O=C(O)[C@@H]1C[C@@H](c2ccccc2)CN1; Cpp = rac-(3R,4S)-cis-methanoproline; Pro(3S-OH) = O=C(O)[C@H]1NCC[C@@H]1O; cisHyp = O=C(O)[C@@H]1C[C@H](O)CN1; dDap(Me2) = CN(C)C[C@@H](N)C(=O)O; Hyp = O=C(O)[C@@H]1C[C@@H](O)CN1; NMeL = CN[C@@H](CC(C)C)C(=O)O; β3hK = NCCCC[C@H](N)CC(=O)O; ΔPro = O=C(O)[C@@H]1C=CCN1; Ac6c = NC1(C(=O)O)CCCCC1; Octanoyl = CCCCCCCC(=O)*; Thz = O=C(O)[C@@H]1CSCN1; Api = NC1(C(=O)O)CCNCC1; Pip′ = not defined here; Dap = NC[C@H](N)C(=O)O; leu = not defined here; NHcHex = C1CCC(N*)CC1
Molecular target: T1, natriuretic peptide receptor-B (human)
T1 chain: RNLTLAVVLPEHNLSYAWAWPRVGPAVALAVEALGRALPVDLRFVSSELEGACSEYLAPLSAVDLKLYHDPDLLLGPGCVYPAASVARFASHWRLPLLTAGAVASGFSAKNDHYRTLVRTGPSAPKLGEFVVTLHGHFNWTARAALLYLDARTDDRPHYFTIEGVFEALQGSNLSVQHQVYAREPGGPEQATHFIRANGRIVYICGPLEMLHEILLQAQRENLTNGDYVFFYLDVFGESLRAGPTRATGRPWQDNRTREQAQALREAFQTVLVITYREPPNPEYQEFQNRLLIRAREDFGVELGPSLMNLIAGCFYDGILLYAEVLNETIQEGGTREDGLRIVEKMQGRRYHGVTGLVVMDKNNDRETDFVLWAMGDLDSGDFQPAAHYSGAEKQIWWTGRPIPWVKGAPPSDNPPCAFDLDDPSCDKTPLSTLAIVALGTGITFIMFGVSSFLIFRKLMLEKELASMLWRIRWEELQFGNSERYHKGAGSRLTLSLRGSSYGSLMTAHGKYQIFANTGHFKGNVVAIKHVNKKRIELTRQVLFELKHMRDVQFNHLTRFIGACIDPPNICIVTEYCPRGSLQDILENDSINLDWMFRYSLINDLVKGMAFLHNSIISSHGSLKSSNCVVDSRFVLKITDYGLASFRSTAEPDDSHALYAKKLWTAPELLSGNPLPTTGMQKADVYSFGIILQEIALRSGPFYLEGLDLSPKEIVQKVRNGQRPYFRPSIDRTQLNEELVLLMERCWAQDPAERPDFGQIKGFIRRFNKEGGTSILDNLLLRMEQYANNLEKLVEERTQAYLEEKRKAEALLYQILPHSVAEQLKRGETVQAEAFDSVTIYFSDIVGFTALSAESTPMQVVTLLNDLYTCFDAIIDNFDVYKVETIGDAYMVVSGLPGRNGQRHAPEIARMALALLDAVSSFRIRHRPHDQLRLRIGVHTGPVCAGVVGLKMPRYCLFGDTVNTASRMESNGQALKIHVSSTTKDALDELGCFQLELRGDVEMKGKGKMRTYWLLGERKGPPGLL
Test: cell-based or functional assay

B2: JAL-0654 (peptide)
peptide: XXFGLKLDRI
HELM: PEPTIDE1{[CCCCCC(=O)[*:2]].[O=C(C1CCCN([*:1])C1)[*:2]].F.G.L.K.L.D.R.I.[am]}$$$$V2.0
SMILES: CCCCCC(=O)N1CCCC(C(=O)N[C@@H](Cc2ccccc2)C(=O)NCC(=O)N[C@@H](CC(C)C)C(=O)N[C@@H](CCCCN)C(=O)N[C@@H](CC(C)C)C(=O)N[C@@H](CC(=O)O)C(=O)N[C@@H](CCCNC(=N)N)C(=O)N[C@H](C(N)=O)[C@@H](C)CC)C1
EC50 group, cGMP in GTM-3 cells: ≤ 15 µM

Binder: Octanoyl-AFLL[Hyp][NMeL]D[Pip′]I-NH2 (also: lower-case ala, leu: meaning not given here) [JAL-1438]
EC50 group, cGMP in GTM-3 cells: ≤ 5 µM

Binder: Octanoyl-AFLL[Hyp][NMeL]D[Thz]I-NH2 (also: lower-case ala, leu: meaning not given here) [JAL-1442]
EC50 group, cGMP in GTM-3 cells: ≤ 5 µM

Binder: Octanoyl-[dA]F[dDap(Me2)]L[Pro(trans-4-NH2)][NMeL]DPI-NH2 [JAL-1453]
EC50 group, cGMP in GTM-3 cells: ≤ 1 µM

Binder: Octanoyl-AFLL[Hyp][NMeL]D[Hyp]I-NH2 (also: lower-case ala, leu: meaning not given here) [JAL-1441]
EC50 group, cGMP in GTM-3 cells: ≤ 15 µM

Binder: Octanoyl-[dA]F[dL]L[Hyp][NMeL]D[Api]I-NH2 [JAL-1458]
EC50 group, cGMP in GTM-3 cells: ≤ 5 µM

Binder: Octanoyl-[dA]F[dL]L[Hyp][NMeL]D[Pro(trans-4-NH2)]I-NH2 [JAL-1459]
EC50 group, cGMP in GTM-3 cells: ≤ 15 µM

Binder: Octanoyl-[dA]F[dL]L[Hyp][NMeL]D[Ac6c]I-NH2 [JAL-1457]
EC50 group, cGMP in GTM-3 cells: ≤ 15 µM

Binder: Octanoyl-AFLL[Hyp][NMeL]D[Cpp]I-NH2 (also: lower-case ala, leu: meaning not given here) [JAL-1443]
EC50 group, cGMP in GTM-3 cells: ≤ 5 µM

B8: JAL-0656 (peptide)
peptide: XXFGLKLDRI
HELM: PEPTIDE1{[CCCCCC(=O)[*:2]].[O=C1[C@@H](N[*:1])CCCCN1CC(=O)[*:2]].F.G.L.K.L.D.R.I.[am]}$$$$V2.0
SMILES: CCCCCC(=O)N[C@H]1CCCCN(CC(=O)N[C@@H](Cc2ccccc2)C(=O)NCC(=O)N[C@@H](CC(C)C)C(=O)N[C@@H](CCCCN)C(=O)N[C@@H](CC(C)C)C(=O)N[C@@H](CC(=O)O)C(=O)N[C@@H](CCCNC(=N)N)C(=O)N[C@H](C(N)=O)[C@@H](C)CC)C1=O
EC50 group, cGMP in GTM-3 cells: ≤ 15 µM

Binder: Octanoyl-[dA]F[Ac6c]L[Pro(trans-4-NH2)][NMeL]DRI-NH2 [JAL-1454]
EC50 group, cGMP in GTM-3 cells: ≤ 1 µM

Binder: Octanoyl-AF[Api]L[Hyp][NMeL]DPI-NH2 (also: lower-case ala: meaning not given here) [JAL-1451]
EC50 group, cGMP in GTM-3 cells: ≤ 5 µM

Binder: Octanoyl-[dA]F[dL]L[Hyp][NMeL]D[Pro(trans-4-Ph)]I-NH2 [JAL-1456]
EC50 group, cGMP in GTM-3 cells: ≤ 15 µM

Binder: Octanoyl-AFLL[Pro(trans-4-NH2)][NMeL]DPI-NH2 (also: lower-case ala, leu: meaning not given here) [JAL-1450]
EC50 group, cGMP in GTM-3 cells: ≤ 5 µM

Binder: Octanoyl-[dA]F[Api]L[Pro(trans-4-NH2)][NMeL]DPI-NH2 [JAL-1452]
EC50 group, cGMP in GTM-3 cells: ≤ 1 µM

Other lines, results leading:

EC50 group, cGMP in GTM-3 cells: ≤ 5 µM
B1: JAL-1483 (peptide)
peptide: Octanoyl-AF[leu]L[Hyp][NMeL]D[β3hK]I-NH2
modifications: not fully specified (some residues); printed as Occ-ala-Phe-leu-Leu-Hyp-Nml-Asp-Bhk-Ile-NH2; reading uncertain

EC50 group, cGMP in GTM-3 cells: ≤ 5 µM
Binder: Octanoyl-[Sni][Phe(4-NO2)][leu]L[Hyp][NMeL]DRI-NH2 (reading uncertain; also: printed as Occ-Sni-Nif-leu-Leu-Hyp-Nml-Asp-Arg-Ile-NH2) [JAL-1486]

EC50 group, cGMP in GTM-3 cells: ≤ 15 µM
Binder: Octanoyl-[Sni]F[leu]L[Hyp][NMeL]DPI-OH (reading uncertain; also: printed as Occ-Sni-Phe-leu-Leu-Hyp-Nml-Asp-Pro-Ile-OH) [JAL-1474]

EC50 group, cGMP in GTM-3 cells: ≤ 5 µM
B3: JAL-1479 (peptide)
peptide: Octanoyl-AF[leu]L[Hyp][NMeL]D[ΔPro]I-NH2
modifications: not fully specified (some residues); printed as Occ-ala-Phe-leu-Leu-Hyp-Nml-Asp-Dhp-Ile-NH2; reading uncertain

EC50 group, cGMP in GTM-3 cells: ≤ 5 µM
B4: JAL-1476 (peptide)
peptide: Octanoyl-AF[leu]L[Hyp][NMeL]D[cisHyp]I-NH2
modifications: not fully specified (some residues); printed as Occ-ala-Phe-leu-Leu-Hyp-Nml-Asp-Chy-Ile-NH2; reading uncertain

EC50 group, cGMP in GTM-3 cells: ≤ 5 µM
B5: JAL-1477 (peptide)
peptide: Octanoyl-AF[leu]L[Hyp][NMeL]D[Pro(3S-OH)]I-NH2
modifications: not fully specified (some residues); printed as Occ-ala-Phe-leu-Leu-Hyp-Nml-Asp-H3p-Ile-NH2; reading uncertain

EC50 group, cGMP in GTM-3 cells: ≤ 5 µM
B6: JAL-1461 (peptide)
peptide: Octanoyl-[dA]FXL[Pro(trans-4-NH2)][NMeL]DRI-NH2
modifications: not fully specified (some residues); printed as Occ-ala-Phe-dap(6238)-Leu-Tap-Nml-Asp-Arg-Ile-NH2

EC50 group, cGMP in GTM-3 cells: ≤ 5 µM
Binder: Octanoyl-[Sni]F[dL]L[Hyp][NMeL]DP[NHcHex] [JAL-1464]

EC50 group, cGMP in GTM-3 cells: ≤ 5 µM
B7: JAL-1482 (peptide)
peptide: Octanoyl-AF[leu]L[Hyp][NMeL]D[Dap]I-NH2
modifications: not fully specified (some residues); printed as Occ-ala-Phe-leu-Leu-Hyp-Nml-Asp-Udp-Ile-NH2; reading uncertain

EC50 group, cGMP in GTM-3 cells: ≤ 1 µM
B9: JAL-1463 (peptide)
peptide: Octanoyl-[dA]FXL[Pro(trans-4-NH2)][NMeL]DRI-NH2
modifications: not fully specified (some residues); printed as Occ-ala-Phe-dap(1464)-Leu-Tap-Nml-Asp-Arg-Ile-NH2

EC50 group, cGMP in GTM-3 cells: ≤ 5 µM
B10: JAL-1460 (peptide)
peptide: Octanoyl-[dA]FXL[Pro(trans-4-NH2)][NMeL]DRI-NH2
modifications: not fully specified (some residues); printed as Occ-ala-Phe-dap(6238)2-Leu-Tap-Nml-Asp-Arg-Ile-NH2

EC50 group, cGMP in GTM-3 cells: ≤ 5 µM
B11: JAL-1462 (peptide)
peptide: Octanoyl-[dA]FXL[Pro(trans-4-NH2)][NMeL]DRI-NH2
modifications: not fully specified (some residues); printed as Occ-ala-Phe-dap(3846)2-Leu-Tap-Nml-Asp-Arg-Ile-NH2

EC50 group, cGMP in GTM-3 cells: ≤ 5 µM
B12: JAL-1475 (peptide)
peptide: Octanoyl-[Sni]F[leu]L[Hyp][NMeL]DPI-NHMe
modifications: reading uncertain; also: printed as Occ-Sni-Phe-leu-Leu-Hyp-Nml-Asp-Pro-Ile-(NH-CH3)

From patent US9187525B2, “Methods of treating ophthalmic diseases using NPR-B agonists” (Shire Orphan Therapies GmbH, dated 2015)
